Data as given in article PMC11338459, “Cryo-EM structures of the human band 3 transporter indicate a transport mechanism involving the coupled movement of chloride and bicarbonate ions” (PLOS Biology, 2024).

Molecular target: the molecule itself
Assay: cryo-EM structure; detergent-solubilized raw ghost membrane of human RBC reconstituted into MSP1E3D1 nanodiscs (POPC:POPE:POPG), enriched on Superose 6 in 20 mM Tris-HCl pH 7.5, 100 mM NaCl; Build and Retrieve processing; OF-IF and IF-IF dimers

B1: human band 3 anion transporter (natural protein, UniProt P02730 1-911, looked up)
chain: MEELQDDYEDMMEENLEQEEYEDPDIPESQMEEPAAHDTEATATDYHTTSHPGTHKVYVELQELVMDEKNQELRWMEAARWVQLEENLGENGAWGRPHLSHLTFWSLLELRRVFTKGTVLLDLQETSLAGVANQLLDRFIFEDQIRPQDREELLRALLLKHSHAGELEALGGVKPAVLTRSGDPSQPLLPQHSSLETQLFCEQGDGGTEGHSPSGILEKIPPDSEATLVLVGRADFLEQPVLGFVRLQEAAELEAVELPVPIRFLFVLLGPEAPHIDYTQLGRAAATLMSERVFRIDAYMAQSRGELLHSLEGFLDCSLVLPPTDAPSEQALLSLVPVQRELLRRRYQSSPAKPDSSFYKGLDLNGGPDDPLQQTGQLFGGLVRDIRRRYPYYLSDITDAFSPQVLAAVIFIYFAALSPAITFGGLLGEKTRNQMGVSELLISTAVQGILFALLGAQPLLVVGFSGPLLVFEEAFFSFCETNGLEYIVGRVWIGFWLILLVVLVVAFEGSFLVRFISRYTQEIFSFLISLIFIYETFSKLIKIFQDHPLQKTYNYNVLMVPKPQGPLPNTALLSLVLMAGTFFFAMMLRKFKNSSYFPGKLRRVIGDFGVPISILIMVLVDFFIQDTYTQKLSVPDGFKVSNSSARGWVIHPLGLRSEFPIWMMFASALPALLVFILIFLESQITTLIVSKPERKMVKGSGFHLDLLLVVGMGGVAALFGMPWLSATTVRSVTHANALTVMGKASTPGAAAQIQEVKEQRISGLLVAVLVGLSILMEPILSRIPLAVLFGIFLYMGVTSLSGIQLFDRILLLFKPPKYHPDVPYVKRVKTWRMHLFTGIQIICLAVLWVVKSTPASLALPFVLILTVPLRRVLLPLIFRNVELQCLDADDAKATFDEEEGRDEYDEVAMPV
modifications: N-linked N-acetylglucosamine (NAG) at N642
notes: band 3 anion transporter (AE1), human erythrocyte form of 911 amino acids, encoded by SLC4A1; endogenous protein from ghost membranes; the model of each subunit holds residues 372-888 except 743-751; Native protein from a crude membrane extract, identified from the cryo-EM maps (Build and Retrieve, Model Angelo); PC and PIP2 lipids lie at the subunit interface; also called band 3 transporter; …
For B1, the “stoichiometry N” value was 2.
